In patent US20130039850A1 one finds Ka, koff and kon data, which are given here for one substance.

Assay [1] concerns the target recombinant soluble human CD4 (human) (UniProt P01730). As to the kind of experiment: SPR sensor chip; sCD4 amine-coupled, antibody flowed over.
For assay [2] the target is unchanged. The assay can be described thus: BIAcore; rCD4 coupled to chip, mAb flowed (avidity).

As usually defined, the koff is a measure of how fast the partners let go of each other. A word on the kon: it is a measure of how fast the partners come together. Turning to “mouse anti-human CD4 monoclonal antibody Leu3a (Becton Dickinson)”, in assay [1], the Ka came to 3.7e+10 M⁻¹, the koff was found to be 4.2e-05 s⁻¹ and the kon stood at 150000 M⁻¹ s⁻¹. Further, in assay [2], the Ka worked out at 3.7e+10 M⁻¹, the koff came out at 4.2e-06 s⁻¹ and the kon was determined as 150000 M⁻¹ s⁻¹.
